From article PMC12416549 (2024)

Biological target: T1, TNFR1 (Homo sapiens, UniProt P19438)
T1 chain: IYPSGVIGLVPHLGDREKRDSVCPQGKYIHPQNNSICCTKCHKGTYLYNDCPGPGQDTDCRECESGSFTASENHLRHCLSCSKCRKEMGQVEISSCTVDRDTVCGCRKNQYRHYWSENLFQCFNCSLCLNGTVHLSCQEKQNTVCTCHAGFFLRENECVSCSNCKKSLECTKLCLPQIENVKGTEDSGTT
Test: yeast display SC50

Binder | apparent Kd (screen) [nM]
A47S (designed binder) SMEEEVEKAAKEYEKKKKEAIEKHLEKLKAKDKEAAERFLKELEEASKEYAKDEAKTMSEEEAKRRAKKYKEKVLLSELSEEEQKEIKEAEEKLVRTILKYVEEAAK | 2.05
A46P (designed binder) SMEEEVEKAAKEYEKKKKEAIEKHLEKLKAKDKEAAERFLKELEEPAKEYAKDEAKTMSEEEAKRRAKKYKEKVLLSELSEEEQKEIKEAEEKLVRTILKYVEEAAK | 11.4
L79M (designed binder) SMEEEVEKAAKEYEKKKKEAIEKHLEKLKAKDKEAAERFLKELEEAAKEYAKDEAKTMSEEEAKRRAKKYKEKVLLSEMSEEEQKEIKEAEEKLVRTILKYVEEAAK | 0.79
K33G (designed binder) SMEEEVEKAAKEYEKKKKEAIEKHLEKLKAKDGEAAERFLKELEEAAKEYAKDEAKTMSEEEAKRRAKKYKEKVLLSELSEEEQKEIKEAEEKLVRTILKYVEEAAK | 1.16
A106R (designed binder) SMEEEVEKAAKEYEKKKKEAIEKHLEKLKAKDKEAAERFLKELEEAAKEYAKDEAKTMSEEEAKRRAKKYKEKVLLSELSEEEQKEIKEAEEKLVRTILKYVEEARK | 3
K33A (designed binder) SMEEEVEKAAKEYEKKKKEAIEKHLEKLKAKDAEAAERFLKELEEAAKEYAKDEAKTMSEEEAKRRAKKYKEKVLLSELSEEEQKEIKEAEEKLVRTILKYVEEAAK | 0.49
A30T (designed binder) SMEEEVEKAAKEYEKKKKEAIEKHLEKLKTKDKEAAERFLKELEEAAKEYAKDEAKTMSEEEAKRRAKKYKEKVLLSELSEEEQKEIKEAEEKLVRTILKYVEEAAK | 1.16
K71H (designed binder) SMEEEVEKAAKEYEKKKKEAIEKHLEKLKAKDKEAAERFLKELEEAAKEYAKDEAKTMSEEEAKRRAKKYHEKVLLSELSEEEQKEIKEAEEKLVRTILKYVEEAAK | 0.593
K68T (designed binder) SMEEEVEKAAKEYEKKKKEAIEKHLEKLKAKDKEAAERFLKELEEAAKEYAKDEAKTMSEEEAKRRATKYKEKVLLSELSEEEQKEIKEAEEKLVRTILKYVEEAAK | 1.4
K93D (designed binder) SMEEEVEKAAKEYEKKKKEAIEKHLEKLKAKDKEAAERFLKELEEAAKEYAKDEAKTMSEEEAKRRAKKYKEKVLLSELSEEEQKEIKEAEEDLVRTILKYVEEAAK | 0.446
E72I (designed binder) SMEEEVEKAAKEYEKKKKEAIEKHLEKLKAKDKEAAERFLKELEEAAKEYAKDEAKTMSEEEAKRRAKKYKIKVLLSELSEEEQKEIKEAEEKLVRTILKYVEEAAK | 0.718
E72S (designed binder) SMEEEVEKAAKEYEKKKKEAIEKHLEKLKAKDKEAAERFLKELEEAAKEYAKDEAKTMSEEEAKRRAKKYKSKVLLSELSEEEQKEIKEAEEKLVRTILKYVEEAAK | 2.73
A35K (designed binder) SMEEEVEKAAKEYEKKKKEAIEKHLEKLKAKDKEKAERFLKELEEAAKEYAKDEAKTMSEEEAKRRAKKYKEKVLLSELSEEEQKEIKEAEEKLVRTILKYVEEAAK | 0.49
K41M (designed binder) SMEEEVEKAAKEYEKKKKEAIEKHLEKLKAKDKEAAERFLMELEEAAKEYAKDEAKTMSEEEAKRRAKKYKEKVLLSELSEEEQKEIKEAEEKLVRTILKYVEEAAK | 0.446
A106P (designed binder) SMEEEVEKAAKEYEKKKKEAIEKHLEKLKAKDKEAAERFLKELEEAAKEYAKDEAKTMSEEEAKRRAKKYKEKVLLSELSEEEQKEIKEAEEKLVRTILKYVEEAPK | 0.653
A10N (designed binder) SMEEEVEKANKEYEKKKKEAIEKHLEKLKAKDKEAAERFLKELEEAAKEYAKDEAKTMSEEEAKRRAKKYKEKVLLSELSEEEQKEIKEAEEKLVRTILKYVEEAAK | 2.48
R65Q (designed binder) SMEEEVEKAAKEYEKKKKEAIEKHLEKLKAKDKEAAERFLKELEEAAKEYAKDEAKTMSEEEAKQRAKKYKEKVLLSELSEEEQKEIKEAEEKLVRTILKYVEEAAK | 0.304
E86F (designed binder) SMEEEVEKAAKEYEKKKKEAIEKHLEKLKAKDKEAAERFLKELEEAAKEYAKDEAKTMSEEEAKRRAKKYKEKVLLSELSEEEQKFIKEAEEKLVRTILKYVEEAAK | 1.86

Binder | apparent Kd (screen) [nM]
E44A (designed binder) SMEEEVEKAAKEYEKKKKEAIEKHLEKLKAKDKEAAERFLKELAEAAKEYAKDEAKTMSEEEAKRRAKKYKEKVLLSELSEEEQKEIKEAEEKLVRTILKYVEEAAK | 0.956
E103A (designed binder) SMEEEVEKAAKEYEKKKKEAIEKHLEKLKAKDKEAAERFLKELEEAAKEYAKDEAKTMSEEEAKRRAKKYKEKVLLSELSEEEQKEIKEAEEKLVRTILKYVAEAAK | 0.446
K23C (designed binder) SMEEEVEKAAKEYEKKKKEAIECHLEKLKAKDKEAAERFLKELEEAAKEYAKDEAKTMSEEEAKRRAKKYKEKVLLSELSEEEQKEIKEAEEKLVRTILKYVEEAAK | 0.49
I98M (designed binder) SMEEEVEKAAKEYEKKKKEAIEKHLEKLKAKDKEAAERFLKELEEAAKEYAKDEAKTMSEEEAKRRAKKYKEKVLLSELSEEEQKEIKEAEEKLVRTMLKYVEEAAK | 5.31
L79S (designed binder) SMEEEVEKAAKEYEKKKKEAIEKHLEKLKAKDKEAAERFLKELEEAAKEYAKDEAKTMSEEEAKRRAKKYKEKVLLSESSEEEQKEIKEAEEKLVRTILKYVEEAAK | 2.73
I21K (designed binder) SMEEEVEKAAKEYEKKKKEAKEKHLEKLKAKDKEAAERFLKELEEAAKEYAKDEAKTMSEEEAKRRAKKYKEKVLLSELSEEEQKEIKEAEEKLVRTILKYVEEAAK | 0.446
K69C (designed binder) SMEEEVEKAAKEYEKKKKEAIEKHLEKLKAKDKEAAERFLKELEEAAKEYAKDEAKTMSEEEAKRRAKCYKEKVLLSELSEEEQKEIKEAEEKLVRTILKYVEEAAK | 2.48
A63I (designed binder) SMEEEVEKAAKEYEKKKKEAIEKHLEKLKAKDKEAAERFLKELEEAAKEYAKDEAKTMSEEEIKRRAKKYKEKVLLSELSEEEQKEIKEAEEKLVRTILKYVEEAAK | 4.83
R96G (designed binder) SMEEEVEKAAKEYEKKKKEAIEKHLEKLKAKDKEAAERFLKELEEAAKEYAKDEAKTMSEEEAKRRAKKYKEKVLLSELSEEEQKEIKEAEEKLVGTILKYVEEAAK | 2.73
E61N (designed binder) SMEEEVEKAAKEYEKKKKEAIEKHLEKLKAKDKEAAERFLKELEEAAKEYAKDEAKTMSENEAKRRAKKYKEKVLLSELSEEEQKEIKEAEEKLVRTILKYVEEAAK | 1.4
V74W (designed binder) SMEEEVEKAAKEYEKKKKEAIEKHLEKLKAKDKEAAERFLKELEEAAKEYAKDEAKTMSEEEAKRRAKKYKEKWLLSELSEEEQKEIKEAEEKLVRTILKYVEEAAK | 0.49
A106T (designed binder) SMEEEVEKAAKEYEKKKKEAIEKHLEKLKAKDKEAAERFLKELEEAAKEYAKDEAKTMSEEEAKRRAKKYKEKVLLSELSEEEQKEIKEAEEKLVRTILKYVEEATK | 1.54
S80W (designed binder) SMEEEVEKAAKEYEKKKKEAIEKHLEKLKAKDKEAAERFLKELEEAAKEYAKDEAKTMSEEEAKRRAKKYKEKVLLSELWEEEQKEIKEAEEKLVRTILKYVEEAAK | 3
K88N (designed binder) SMEEEVEKAAKEYEKKKKEAIEKHLEKLKAKDKEAAERFLKELEEAAKEYAKDEAKTMSEEEAKRRAKKYKEKVLLSELSEEEQKEINEAEEKLVRTILKYVEEAAK | 0.446
E45S (designed binder) SMEEEVEKAAKEYEKKKKEAIEKHLEKLKAKDKEAAERFLKELESAAKEYAKDEAKTMSEEEAKRRAKKYKEKVLLSELSEEEQKEIKEAEEKLVRTILKYVEEAAK | 2.73
E104L (designed binder) SMEEEVEKAAKEYEKKKKEAIEKHLEKLKAKDKEAAERFLKELEEAAKEYAKDEAKTMSEEEAKRRAKKYKEKVLLSELSEEEQKEIKEAEEKLVRTILKYVELAAK | 0.49
K100N (designed binder) SMEEEVEKAAKEYEKKKKEAIEKHLEKLKAKDKEAAERFLKELEEAAKEYAKDEAKTMSEEEAKRRAKKYKEKVLLSELSEEEQKEIKEAEEKLVRTILNYVEEAAK | 0.956
